The supplement of paper PMC9112550, “Optimization of the antimicrobial peptide Bac7 by deep mutational scanning” (BMC Biology, 2022)
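Note: peptides expressed intracellularly from a pBAD plasmid library in pooled LB shake-flask culture, induced with 0.3% L-arabinose, DNA abundance read by NGS, three biological replicates, DESeq2 with apeglm shrinkage.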

These sequences were tested on Escherichia coli TOP10 (assay: shrunken log2 fold change of peptide-encoding DNA abundance (4.5 h post-induction vs induction); higher = less antimicrobial activity (less host growth inhibition)). Conditions: time post-induction: 4.5 h; library: site-saturation at positions 5, 18, 19, 20.
In the case of RRIRERPPRLPRPRPRPTPHPRP, the “shrunken log2 fold change” value is reported as 0.308. With RRIRKRPPRLPRPRPRPCLVPRP the “shrunken log2 fold change” value was 0.123. RRIRVRPPRLPRPRPRPITKPRP was tested, and the “shrunken log2 fold change” value was 0.0714. With RRIRQRPPRLPRPRPRPWVQPRP the “shrunken log2 fold change” value was -0.0131. With RRIRWRPPRLPRPRPRPPKMPRP the “shrunken log2 fold change” value was 0.172. For RRIRLRPPRLPRPRPRPRQLPRP, the “shrunken log2 fold change” value was 0.153. In the case of RRIRVRPPRLPRPRPRPQMLPRP, the “shrunken log2 fold change” value is reported as -0.158. For RRIRIRPPRLPRPRPRPDFWPRP, the “shrunken log2 fold change” value was 0.0448. In the case of RRIRNRPPRLPRPRPRPHMWPRP, the “shrunken log2 fold change” value is reported as -0.0758. RRIRARPPRLPRPRPRPMNKPRP was tested, and the “shrunken log2 fold change” value was -0.00986. In the case of RRIRERPPRLPRPRPRPEWFPRP, the “shrunken log2 fold change” value is reported as 0.0631. With RRIRMRPPRLPRPRPRPHKDPRP the “shrunken log2 fold change” value was -0.0811. In the case of RRIRQRPPRLPRPRPRPAWMPRP, the “shrunken log2 fold change” value is reported as 0.0361. For RRIRFRPPRLPRPRPRPHTQPRP, the “shrunken log2 fold change” value was -0.225. RRIRFRPPRLPRPRPRPSVSPRP was tested, and the “shrunken log2 fold change” value was -0.2. RRIRPRPPRLPRPRPRPGWRPRP was tested, and the “shrunken log2 fold change” value was 0.438. With RRIRMRPPRLPRPRPRPCNIPRP the “shrunken log2 fold change” value was 0.0653. RRIRARPPRLPRPRPRPVQMPRP was tested, and the “shrunken log2 fold change” value was 0.21. With RRIRARPPRLPRPRPRPIHNPRP the “shrunken log2 fold change” value was -0.0611. With RRIRERPPRLPRPRPRPSPCPRP the “shrunken log2 fold change” value was -0.229. With RRIRRRPPRLPRPRPRPVRIPRP the “shrunken log2 fold change” value was -0.00526. RRIRNRPPRLPRPRPRPMDHPRP was tested, and the “shrunken log2 fold change” value was 0.0184. In the case of RRIRTRPPRLPRPRPRPAHDPRP, the “shrunken log2 fold change” value is reported as 0.268. With RRIRSRPPRLPRPRPRPIRKPRP the “shrunken log2 fold change” value was 0.143. For RRIRRRPPRLPRPRPRPLMHPRP, the “shrunken log2 fold change” value was 0.292. With RRIRIRPPRLPRPRPRPYLWPRP the “shrunken log2 fold change” value was -0.156. For RRIRPRPPRLPRPRPRPLMVPRP, the “shrunken log2 fold change” value was -0.0973. With RRIRVRPPRLPRPRPRPRAMPRP the “shrunken log2 fold change” value was 0.213. RRIRNRPPRLPRPRPRPLREPRP was tested, and the “shrunken log2 fold change” value was 0.128. RRIRPRPPRLPRPRPRPSNFPRP was tested, and the “shrunken log2 fold change” value was -0.168. For RRIRWRPPRLPRPRPRPRISPRP, the “shrunken log2 fold change” value was 0.305. For RRIRRRPPRLPRPRPRPFAMPRP, the “shrunken log2 fold change” value was 0.0854. RRIRKRPPRLPRPRPRPCVFPRP was tested, and the “shrunken log2 fold change” value was 0.204. In the case of RRIRARPPRLPRPRPRPMTAPRP, the “shrunken log2 fold change” value is reported as 0.433. For RRIRNRPPRLPRPRPRPHGLPRP, the “shrunken log2 fold change” value was -0.257. In the case of RRIRTRPPRLPRPRPRPWILPRP, the “shrunken log2 fold change” value is reported as -0.23. With RRIRTRPPRLPRPRPRPWVFPRP the “shrunken log2 fold change” value was 0.0157. RRIRVRPPRLPRPRPRPYFWPRP was tested, and the “shrunken log2 fold change” value was -0.395. For RRIRTRPPRLPRPRPRPETSPRP, the “shrunken log2 fold change” value was 0.199. In the case of RRIRSRPPRLPRPRPRPHCLPRP, the “shrunken log2 fold change” value is reported as -0.0826. For RRIRTRPPRLPRPRPRPDRNPRP, the “shrunken log2 fold change” value was -0.09. In the case of RRIRSRPPRLPRPRPRPDYMPRP, the “shrunken log2 fold change” value is reported as -0.355. For RRIRSRPPRLPRPRPRPINLPRP, the “shrunken log2 fold change” value was -0.00701. For RRIRMRPPRLPRPRPRPFSCPRP, the “shrunken log2 fold change” value was -0.115. For RRIRMRPPRLPRPRPRPDRYPRP, the “shrunken log2 fold change” value was -0.0269. In the case of RRIRARPPRLPRPRPRPLKFPRP, the “shrunken log2 fold change” value is reported as -0.38. In the case of RRIRSRPPRLPRPRPRPMFHPRP, the “shrunken log2 fold change” value is reported as -0.438. RRIRFRPPRLPRPRPRPKNRPRP was tested, and the “shrunken log2 fold change” value was -0.284. For RRIRLRPPRLPRPRPRPHREPRP, the “shrunken log2 fold change” value was -0.969. With RRIRIRPPRLPRPRPRPDVKPRP the “shrunken log2 fold change” value was -0.147. In the case of RRIRSRPPRLPRPRPRPHENPRP, the “shrunken log2 fold change” value is reported as 0.0415. With RRIRRRPPRLPRPRPRPRGQPRP the “shrunken log2 fold change” value was 1.11. For RRIRSRPPRLPRPRPRPSSDPRP, the “shrunken log2 fold change” value was -0.107. In the case of RRIRPRPPRLPRPRPRPKDYPRP, the “shrunken log2 fold change” value is reported as -0.0674. For RRIRARPPRLPRPRPRPHYCPRP, the “shrunken log2 fold change” value was -0.17. In the case of RRIRSRPPRLPRPRPRPKVHPRP, the “shrunken log2 fold change” value is reported as -0.231. In the case of RRIRDRPPRLPRPRPRPKWWPRP, the “shrunken log2 fold change” value is reported as 0.00489. RRIRVRPPRLPRPRPRPQHNPRP was tested, and the “shrunken log2 fold change” value was -0.604. For RRIRHRPPRLPRPRPRPYCGPRP, the “shrunken log2 fold change” value was 0.113. With RRIRSRPPRLPRPRPRPQSLPRP the “shrunken log2 fold change” value was -0.232. RRIRIRPPRLPRPRPRPSHLPRP was tested, and the “shrunken log2 fold change” value was -0.622. In the case of RRIRWRPPRLPRPRPRPNIYPRP, the “shrunken log2 fold change” value is reported as -0.307. With RRIRFRPPRLPRPRPRPGTKPRP the “shrunken log2 fold change” value was 0.478. With RRIRVRPPRLPRPRPRPRKIPRP the “shrunken log2 fold change” value was -0.0978. In the case of RRIRLRPPRLPRPRPRPCADPRP, the “shrunken log2 fold change” value is reported as 0.151. With RRIRVRPPRLPRPRPRPPRDPRP the “shrunken log2 fold change” value was 0.303. RRIRWRPPRLPRPRPRPITHPRP was tested, and the “shrunken log2 fold change” value was -0.126. In the case of RRIRMRPPRLPRPRPRPRKAPRP, the “shrunken log2 fold change” value is reported as 1.09. In the case of RRIRNRPPRLPRPRPRPCSKPRP, the “shrunken log2 fold change” value is reported as -0.0508. RRIRRRPPRLPRPRPRPCRYPRP was tested, and the “shrunken log2 fold change” value was -0.0616. In the case of RRIRFRPPRLPRPRPRPVFNPRP, the “shrunken log2 fold change” value is reported as -0.461. RRIRGRPPRLPRPRPRPQLIPRP was tested, and the “shrunken log2 fold change” value was 0.139. RRIRSRPPRLPRPRPRPQLGPRP was tested, and the “shrunken log2 fold change” value was 0.115. For RRIRNRPPRLPRPRPRPDYLPRP, the “shrunken log2 fold change” value was -0.142. RRIRWRPPRLPRPRPRPCHVPRP was tested, and the “shrunken log2 fold change” value was -0.437. With RRIRARPPRLPRPRPRPMWDPRP the “shrunken log2 fold change” value was -0.103. With RRIRRRPPRLPRPRPRPLNYPRP the “shrunken log2 fold change” value was -0.365. RRIRYRPPRLPRPRPRPHCCPRP was tested, and the “shrunken log2 fold change” value was -0.0599. With RRIRPRPPRLPRPRPRPGIHPRP the “shrunken log2 fold change” value was -0.137. In the case of RRIRPRPPRLPRPRPRPAAKPRP, the “shrunken log2 fold change” value is reported as 0.435. With RRIRPRPPRLPRPRPRPQAQPRP the “shrunken log2 fold change” value was 0.143. For RRIRMRPPRLPRPRPRPTIMPRP, the “shrunken log2 fold change” value was 0.176. For RRIRKRPPRLPRPRPRPQTWPRP, the “shrunken log2 fold change” value was 0.134. For RRIRDRPPRLPRPRPRPTRPPRP, the “shrunken log2 fold change” value was 1.13. RRIRGRPPRLPRPRPRPDMWPRP was tested, and the “shrunken log2 fold change” value was 0.132. With RRIRRRPPRLPRPRPRPAWPPRP the “shrunken log2 fold change” value was 0.446. In the case of RRIRCRPPRLPRPRPRPDGLPRP, the “shrunken log2 fold change” value is reported as -0.0371. For RRIRSRPPRLPRPRPRPCPQPRP, the “shrunken log2 fold change” value was 0.0538. RRIRGRPPRLPRPRPRPNMIPRP was tested, and the “shrunken log2 fold change” value was 0.0819. In the case of RRIRDRPPRLPRPRPRPEHLPRP, the “shrunken log2 fold change” value is reported as -0.00213. RRIRCRPPRLPRPRPRPPRLPRP was tested, and the “shrunken log2 fold change” value was 0.873. With RRIRFRPPRLPRPRPRPHIEPRP the “shrunken log2 fold change” value was -0.0641. For RRIRSRPPRLPRPRPRPDFSPRP, the “shrunken log2 fold change” value was 0.0706. RRIRHRPPRLPRPRPRPFRLPRP was tested, and the “shrunken log2 fold change” value was -0.322. With RRIRPRPPRLPRPRPRPFDRPRP the “shrunken log2 fold change” value was 0.0133. For RRIRHRPPRLPRPRPRPHQQPRP, the “shrunken log2 fold change” value was 0.0121. With RRIRFRPPRLPRPRPRPWYLPRP the “shrunken log2 fold change” value was -0.549. For RRIRGRPPRLPRPRPRPPNLPRP, the “shrunken log2 fold change” value was 0.463. For RRIRIRPPRLPRPRPRPIKRPRP, the “shrunken log2 fold change” value was -0.0331. RRIRYRPPRLPRPRPRPTSKPRP was tested, and the “shrunken log2 fold change” value was 0.902. In the case of RRIRVRPPRLPRPRPRPMLRPRP, the “shrunken log2 fold change” value is reported as -0.102. For RRIRTRPPRLPRPRPRPVSAPRP, the “shrunken log2 fold change” value was 0.252. In the case of RRIRNRPPRLPRPRPRPKHLPRP, the “shrunken log2 fold change” value is reported as -0.403. With RRIRSRPPRLPRPRPRPHCTPRP the “shrunken log2 fold change” value was -0.298. In the case of RRIRMRPPRLPRPRPRPIQVPRP, the “shrunken log2 fold change” value is reported as -0.00663. For RRIRVRPPRLPRPRPRPGFNPRP, the “shrunken log2 fold change” value was -0.0909. RRIRYRPPRLPRPRPRPLSVPRP was tested, and the “shrunken log2 fold change” value was -0.576. For RRIRQRPPRLPRPRPRPTKYPRP, the “shrunken log2 fold change” value was -0.257. With RRIRLRPPRLPRPRPRPMVFPRP the “shrunken log2 fold change” value was 0.0182. For RRIRERPPRLPRPRPRPPPNPRP, the “shrunken log2 fold change” value was 0.451. For RRIRKRPPRLPRPRPRPLHRPRP, the “shrunken log2 fold change” value was 0.36. With RRIRMRPPRLPRPRPRPGSYPRP the “shrunken log2 fold change” value was 0.124. For RRIRRRPPRLPRPRPRPQTAPRP, the “shrunken log2 fold change” value was -0.11. For RRIRLRPPRLPRPRPRPFELPRP, the “shrunken log2 fold change” value was -0.519. RRIRKRPPRLPRPRPRPNNRPRP was tested, and the “shrunken log2 fold change” value was 0.0938. In the case of RRIRYRPPRLPRPRPRPTQNPRP, the “shrunken log2 fold change” value is reported as 0.298. With RRIRYRPPRLPRPRPRPGYRPRP the “shrunken log2 fold change” value was -0.46. With RRIRFRPPRLPRPRPRPIQNPRP the “shrunken log2 fold change” value was -0.544. RRIRNRPPRLPRPRPRPPLEPRP was tested, and the “shrunken log2 fold change” value was 0.193. For RRIRVRPPRLPRPRPRPGYLPRP, the “shrunken log2 fold change” value was -0.14. In the case of RRIRRRPPRLPRPRPRPPAWPRP, the “shrunken log2 fold change” value is reported as 0.919. RRIRRRPPRLPRPRPRPNLDPRP was tested, and the “shrunken log2 fold change” value was -0.152. RRIRMRPPRLPRPRPRPTEVPRP was tested, and the “shrunken log2 fold change” value was 0.598. With RRIRRRPPRLPRPRPRPKWEPRP the “shrunken log2 fold change” value was 0.364. With RRIRWRPPRLPRPRPRPALDPRP the “shrunken log2 fold change” value was 0.553.
